Target: microtubules assembled from porcine brain tubulin (porcine) (UniProt P02550)
Sequence (P02550 whole entry, chain 1 of 2): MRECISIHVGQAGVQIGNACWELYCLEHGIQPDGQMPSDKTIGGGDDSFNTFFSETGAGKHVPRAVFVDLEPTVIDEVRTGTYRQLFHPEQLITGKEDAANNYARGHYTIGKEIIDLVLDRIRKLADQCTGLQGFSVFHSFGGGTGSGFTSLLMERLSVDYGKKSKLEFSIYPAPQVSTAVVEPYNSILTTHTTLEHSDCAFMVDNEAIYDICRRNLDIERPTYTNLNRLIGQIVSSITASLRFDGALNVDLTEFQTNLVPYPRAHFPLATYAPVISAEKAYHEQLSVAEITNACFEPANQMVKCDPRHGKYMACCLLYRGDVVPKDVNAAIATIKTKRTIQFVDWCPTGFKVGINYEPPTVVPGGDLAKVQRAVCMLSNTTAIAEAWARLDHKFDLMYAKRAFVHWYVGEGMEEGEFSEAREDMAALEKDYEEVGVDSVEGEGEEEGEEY
Sequence (P02554 whole entry, chain 2 of 2, further chain): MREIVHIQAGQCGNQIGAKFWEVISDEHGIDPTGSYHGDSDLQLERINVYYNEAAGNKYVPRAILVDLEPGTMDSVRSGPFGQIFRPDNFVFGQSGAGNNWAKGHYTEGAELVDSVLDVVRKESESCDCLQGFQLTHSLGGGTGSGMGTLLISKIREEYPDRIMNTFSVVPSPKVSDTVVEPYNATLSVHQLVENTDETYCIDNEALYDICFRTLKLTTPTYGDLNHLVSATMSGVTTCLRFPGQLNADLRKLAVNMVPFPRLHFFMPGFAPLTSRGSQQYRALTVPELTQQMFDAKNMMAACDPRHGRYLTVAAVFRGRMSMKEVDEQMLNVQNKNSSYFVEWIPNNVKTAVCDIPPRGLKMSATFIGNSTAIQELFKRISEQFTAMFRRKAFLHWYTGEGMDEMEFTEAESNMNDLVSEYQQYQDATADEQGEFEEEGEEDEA

glutamylation activity with taxol-stabilized MTs, normalized to WT | glutamylation activity with taxol-stabilized MTs, decrease against WT [% decrease] | Substance
55 % of WT |  | TTLL6 with R403 and R407 mutated to alanine (from UniProt A4Q9E8 51-502) (enzyme)
 | 47 | TTLL6 with R415 and R418 mutated to alanine (from UniProt A4Q9E8 51-502) (enzyme)

From PMC11529724
